From article doi:10.1101/2025.08.07.668011
Where “and” joins values, the source holds several entries; their conditions need not be identical. Equal entries are not always repeated.

Experiments:
Assay in all cases: high-speed atomic force microscopy
[1] = target: EML4-ALK v3 with the subdomain region (191-217 aa residues) deleted (ddv3) (human) (UniProt Q9UM73)
[2] = target: EML4-ALK variant-3 (v3b, E6:A20) (human) (UniProt Q9UM73)
[3] = target: EML4-ALK variant-5 (v5a, E2:A20) (human) (UniProt Q9UM73)

EML4-ALK v3 with the subdomain region (191-217 aa residues) deleted (ddv3) (from UniProt Q9UM73 1058-1620) (natural protein)
ratio of dimers [1]: 28.1% | ratio of trimers [1]: 7.3% | stoichiometry N [1]: 2 and 3

EML4-ALK variant-3 (v3b, E6:A20) (from UniProt Q9UM73 1058-1620) (natural protein)
ratio of dimers [2]: 38.5% | ratio of trimers [2]: 9.3% | stoichiometry N [2]: 2 and 3

EML4-ALK variant-5 (v5a, E2:A20) (from UniProt Q9UM73 1058-1620) (natural protein)
ratio of dimers [3]: 29.8% | ratio of trimers [3]: 10.2% | stoichiometry N [3]: 2 and 3
